Test results: patent publication US20240294611A1

What was measured:
[1] = target: SARS-CoV-2 B.1.1.7 (variant Alpha) spike on pseudovirus (SARS-CoV-2) (UniProt P0DTC2); assay: cell-based or functional assay
[2] = target: SARS-CoV-2 D614G spike without stabilizing modifications (on cells or pseudovirus) (SARS-CoV-2) (UniProt P0DTC2); assay: cell-based or functional assay

isotype control antibody with irrelevant binding
Pseudovirus IC50 [1]: > 5 µM | Pseudovirus IC50 [2]: > 5 µM
